The target in this test is T1, nucleolin (Homo sapiens, UniProt P19338).
T1 construct: The cells were not transfected; also called cell surface nucleolin; source: endogenous, on nucleolin-overexpressing MDA-MB-435S cells
Put plainly: flow cytometry on cells; 1.5 x 10^5 MDA-MB-435S cells with 1 µg of each purified VHH, 45 min at 4 °C, PBS with 1% BSA; detected with anti-HA-Alexa Fluor 647; MFI normalised to cells with secondary antibody only; a representative experiment. To be noted: one partner purified.

T1 sequence (P19338 whole entry): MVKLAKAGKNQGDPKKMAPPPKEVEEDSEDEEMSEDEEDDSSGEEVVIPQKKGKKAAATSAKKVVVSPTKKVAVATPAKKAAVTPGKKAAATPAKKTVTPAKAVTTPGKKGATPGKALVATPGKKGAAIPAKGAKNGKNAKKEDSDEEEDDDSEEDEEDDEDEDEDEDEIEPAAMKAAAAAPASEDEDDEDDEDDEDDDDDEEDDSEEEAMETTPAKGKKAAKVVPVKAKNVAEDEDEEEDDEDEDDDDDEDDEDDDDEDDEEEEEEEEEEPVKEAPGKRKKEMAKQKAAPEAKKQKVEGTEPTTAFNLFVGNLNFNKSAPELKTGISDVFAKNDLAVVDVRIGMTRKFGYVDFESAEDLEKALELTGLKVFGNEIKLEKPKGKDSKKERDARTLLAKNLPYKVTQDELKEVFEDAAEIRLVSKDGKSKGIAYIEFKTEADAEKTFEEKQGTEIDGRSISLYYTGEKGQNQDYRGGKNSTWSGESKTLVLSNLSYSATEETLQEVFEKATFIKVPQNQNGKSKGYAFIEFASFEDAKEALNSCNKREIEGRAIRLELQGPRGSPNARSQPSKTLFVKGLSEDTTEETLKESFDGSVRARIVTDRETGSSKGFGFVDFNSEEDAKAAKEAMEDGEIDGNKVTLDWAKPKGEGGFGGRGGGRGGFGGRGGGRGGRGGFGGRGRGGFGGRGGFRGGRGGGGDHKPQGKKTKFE

B1: VHH clone D10 (VHH)
VHH: QVQLQESGGGLVQPGGSLRLSCAASGRASASSARSARAIGWFRQAPGKEREFVARIYWSSGNTYYADSVKGRFAISRDIAKNTVDLTMNNLEPEDTAVYYCAAPQRRSARLSAWGQGTQVTVSS
notes: source: ER2738 E. coli, IPTG induction, purified (Dynabeads His-Tag Isolation & Pulldown)
B1: the “fold increase in binding (normalised MFI) relative to the reference VHH” value was found to be 1.4 fold.

B2: VHH clone D11 (VHH)
VHH: QVQLQESGGGLVQPGGSLRLSCAASGRASASSARSARAIGWFRQAPGKEREFVARIYWSSGNTYYADSVKGRFAISRDIAKNTVDLTMNNLEPEDTAVYYCAAPQRRSARLSAWGQGTQVTVSS
notes: as for B1
In the case of B2, the “fold increase in binding (normalised MFI) relative to the reference VHH” value is 2 fold.

These data come from article PMC11079059, “Development of a new affinity maturation protocol for the construction of an internalizing anti-nucleolin antibody library” (Scientific Reports, 2024).
